Test system: CD46 expression
Test: CD46 expression by RNA-sequencing in unpaired pre-treatment and post-treatment tumor biopsies
Type: in vivo, human
Settings: for CD46 expression diff: Post minus Pre, unpaired biopsies, log2-transformed counts; for CD46 expression Percentage change: post- vs pre-treatment unpaired biopsies; for CD46 expression Post: post-treatment biopsies, unpaired, RNA-seq log2-transformed normalized counts

Molecule | CD46 expression diff (Breast Cancer) | CD46 expression Percentage change (Breast Cancer) | CD46 expression Post (Breast Cancer) | CD46 expression diff (Colorectal Cancer) | CD46 expression Percentage change (Colorectal Cancer) | CD46 expression Post (Colorectal Cancer) | CD46 expression diff (Non-Small Cell Lung Cancer) | CD46 expression Percentage change (Non-Small Cell Lung Cancer) | CD46 expression Post (Non-Small Cell Lung Cancer)
pegfilgrastim (protein, chains of the INN, looked up, PEG) TPLGPASSLPQSFLLKCLEQVRKIQGDGAALQEKLCATYKLCHPEELVLLGHSLGIPWAPLSSCPSQALQLAGCLSQLHSGLFLYQGLLQALEGISPELGPTLDTLQLDVADFATTIWQQMEELGMAPALQPTQGAMPAFASAFQRRAGGVLVASHLQSFLEVSYRVLRHLAQP | −0.13 | −2.1% | 6.25 | 0.29 | 4.6% | 6.62 | 0.07 | 1.2% | 6.06
filgrastim (protein, chains of the INN, looked up) MTPLGPASSLPQSFLLKCLEQVRKIQGDGAALQEKLCATYKLCHPEELVLLGHSLGIPWAPLSSCPSQALQLAGCLSQLHSGLFLYQGLLQALEGISPELGPTLDTLQLDVADFATTIWQQMEELGMAPALQPTQGAMPAFASAFQRRAGGVLVASHLQSFLEVSYRVLRHLAQP | 0.02 | 0.3% | 6.23 | – | – | – | – | – | –
